Read-outs that look alike come from different tables or passages of the source.
Key:
[1] = parameters: species or system Swiss-Webster mice; conditions: mouse, in vivo
Description: The PK of FGF21 antibody conjugates were examined in mice after IV or SC administration. […] Antibody conjugates concentrations in serum were determined using an ELISA which captured the FGF21 portion of the antibody conjugates through a monoclonal anti-hFGF21 antibody bound to a 96-well plate. FGF21 antibody conjugates bound to the plate were detected through an anti-hFc monoclonal antibody, and concentrations were determined using a standard curve of the PK dosing solution diluted into serum-containing assay buffer. SC bioavailability was calculated as the ratio of the area-under the curve (AUC) of the SC serum concentration profile divided by the AUC of the IV serum concentration profile.

[2] = system: Glut1 mRNA expression in differentiated 3T3-L1 adipocytes; assay: Glut1 Taqman assay; format: cell-based
Summary of the method: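 Overnight serum-starved day 10-14 differentiated 3T3-L1 adipocytes were treated with compounds for 6 hrs. Glut1 mRNA was measured by Taqman qRT-PCR, normalized to GAPDH as fold change; EC50 taken from dose-response curves.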

DIO mice = assay: Mouse efficacy in high-fat diet-induced obese (DIO) mice; format: in vivo; conditions: day 10, 1 mg/kg QD
Description: (§1) The efficacy of FGF21 antibodies conjugates was evaluated in two murine obese insulin resistant models—ob/ob mice and high-fat diet-induced obese mice. For both models, male mice (6-8 weeks of age for ob/ob, 12-14 weeks of age for DIO with high-fat diet initiated at 6 weeks of age) were housed 2-4/cage and FGF21 antibody conjugates were administered by SC injection. Body weight was measured daily in the morning. Glucose tolerance was assessed by oral glucose tolerance test. Briefly, mice were fasted for 4-5 hrs in the morning of the day of testing. A basal blood sample was obtained and blood glucose levels were determined using a portable glucometer. Following basal sample, glucose was administered by oral gavage, and blood samples were drawn from 15 to 120 mins thereafter.
(§2) For […] expression, frozen visceral WAT samples collected from the in vivo efficacy studies were homogenized. Total RNA was extracted from the tissue homogenates, and Glut1 and GAPDH mRNA expression was measured using a Quantitect Probe RT-PCR kit and running a quantitative real time PCR reaction in a Taqman machine (Applied Biosystems). The effect of treatment was determined by a fold change in Glut1 mRNA levels normalized by the GAPDH mRNA levels from each sample.

ob/ob mice = assay: Mouse efficacy in ob/ob mice (OGTT, body weight, liver, gene expression); format: in vivo
Description: as §1, §2

[3] = system: Differentiated 3T3-L1 adipocytes; assay: Glucose uptake assay; format: cell-based; conditions: unconjugated protein; n in brackets
Description: Differentiated 3T3-L1 adipocytes were treated with compounds in the absence of serum for 24 hrs. Cells were then incubated with ^14C-2-deoxyglucose for 1 hr and glucose uptake into the cells was quantitated in Wallac 1450 MicroBeta (Trilux) instrument. Glucose uptake was expressed in counts per min (CPM). EC50 values as measurements of the potency of the compounds were obtained from the dose response curves in the assay.

[4] = ob/ob mice liver, day 6, qPCR, 1 mg/kg QD

B1: FGF21ΔH: FGF21 with H1 absent (ΔH1), L146, SEQ ID NO:2; control protein (protein, listed as Homo sapiens)
chain: PIPDSSPLLQFGGQVRQRYLYTDDAQQTEAHLEIREDGTVGGAADQSPESLLQLKALKPGVIQILGVKTSRFLCQRPDGALYGSLHFDPEACSFRELLLEDGYNVYQSEAHGLPLHLPGNKSPHRDPAPRGPARFLPLPGLPPAPLEPPGILAPQPPDVGSSDPLSMVGPSQGRSPSYAS
- IV T1/2 ([1]; iv): 24 min
- % SC BioAv ([1]; sc): 96%
- SC T1/2 ([1]; sc): 30 min
- EC50 ([2]; 3T3-L1 adipocytes, 6 hrs, Taqman quantitative real-time PCR, read-out: Glut1 RNA expression EC50): 3.39 nM
- Glut1 induction in 3T3-L1 adipocytes ([2]; 6 hrs): dose-dependent Glut1 induction
- EC50 ([2]; unconjugated protein, n in brackets, read-out: Glut1 Taqman unconjugated Protein EC50): 2.3 nM
- Body weight change from day −1 (DIO mice): −1.6
- Glucose AUC during OGTT (DIO mice): 75
- Mean values of serum lipids NEFA (DIO mice): 0.40 mM
- Mean values of serum lipids TG (DIO mice): 92 mg/dL
- UCP1 mRNA expression in WAT (DIO mice): 1.38
- GTT* (% AUC of Ctrl) (ob/ob mice; 1 mg/kg Qd (FGF21dH protein)): 67 % AUC of Ctrl
- Mean fold changes of mRNA expression, FoxA2 (ob/ob mice; [4]): 1.23 fold
- Mean fold changes of mRNA expression, MOGAT2 (ob/ob mice; [4]): 0.37 fold
- Mean fold changes of mRNA expression, SCD1 (ob/ob mice; [4]): 0.95 fold
- Mean Glucose AUC (% of vehicle control) (ob/ob mice; ob/ob mice, OGTT day 6, 1 mg/kg QD): 61 % of vehicle control
- Body weight change from day −1 (ob/ob mice; ob/ob mice, day 6, 1 mg/kg QD): 4.7
- Glucose AUC during OGTT (ob/ob mice; ob/ob mice, day 6, 1 mg/kg QD): 67
- Liver Weight (ob/ob mice; ob/ob mice, day 6, 1 mg/kg QD): 1.8 g
- Triglycerides content in liver (ob/ob mice; ob/ob mice, day 6, 1 mg/kg QD): 37.0
- UCP1 mRNA expression in WAT (ob/ob mice; ob/ob mice, day 6, 1 mg/kg QD): 2.6
- Mean Glucose AUC (% of vehicle control) during OGTT (ob/ob mice; ob/ob mice, single SC dose 0.6 mg/kg (FIG. 4A)): 103 % of vehicle control
- Cumulative body weight change, mean body weight (ob/ob mice; ob/ob mice, single SC dose 0.6 mg/kg (FIG. 5A)): 3.2 g
- mean liver weight (ob/ob mice; ob/ob mice, single SC dose 0.6 mg/kg (FIG. 5B)): 2.4 g
- Cumulative body weight change, mean body weight (ob/ob mice; ob/ob mice, single SC dose 1 mg/kg (FIG. 5A)): 2.5 g
- mean liver weight (ob/ob mice; ob/ob mice, single SC dose 1 mg/kg (FIG. 5B)): 2.2 g
- Mean Glucose AUC (% of vehicle control) during OGTT (ob/ob mice; ob/ob mice, single SC dose 1 mg/kg (FIGS. 4A, 4B)): 74 % of vehicle control
- Cumulative body weight change, mean body weight (ob/ob mice; ob/ob mice, single dose, dose not printed (FIG. 6A)): 1.9 g
- mean glucose AUC % during OGTT (ob/ob mice; ob/ob mice, single dose, dose not printed (FIG. 6B)): 63%
- EC50 [3]: 12 nM

From patent US8722622B2, “FGF21 conjugates and anti-diabetic uses thereof” (COVX Technologies Ireland, Limited, priority 2010, dated 2014)
